Experimental data published in patent publication US20180057604A1 (Genentech, published 2018).
Substitutions are numbered along the chain they refer to.

B1: 5260 (antibody, V domains shown)
VH: QVQLVQSGAEVKKPGSSVKVSCKASGGTFSSYAISWVRQAPGQGLEWMGSIIPIFGTANYAQKFQGRVTITADESTSTAYMELSSLRSEDTAVYYCARSGGTKYGMLDVWGQGTMVTVSS
VL: EIVMTQSPATLSVSPGERATLSCRASQSVGSNLAWYQQKPGQAPRLLIYGASTRATGIPARFSGSGSGTEFTLTISSLQSEDFAVYYCQQAVVWPPRTFGGGTKVEIK
notes: anti-BACE1 IgG
B2: 5536 (antibody, V domains shown)
VH: B1 VH
VL: B1 VL with A91S, V92Y, V93L
notes: anti-BACE1 IgG
B3: 5571 (antibody, V domains shown)
VH: B1 VH with S50N, M115V
VL: B1 VL with G30S, A91L, V92I, V93L
notes: anti-BACE1 IgG
B4: 5747 (antibody, V domains shown)
VH: QLQLQESGPGLVKPSETLSLTCTVSGGSISSSSYYWGWIRQPPGKGLEWIGNIYYSGSTYYNPSLKSRVTISVDTSKNQFSLKLSSVTAADTAVYYCARLGHGYSYFDLWGRGTLVTVSS
VL: EIVLTQSPATLSLSPGERATLSCRASQSVSSYLAWYQQKPGQAPRLLIYDASNRATGIPARFSGSGSGTDFTLTISSLEPEDFAVYYCQQVYLWPPRTFGGGTKVEIK
notes: anti-BACE1 IgG
B5: 5878 (antibody, V domains shown)
VH: EVQLLESGGGLVQPGGSLRLSCAASGFTFSSYAMSWVRQAPGKGLEWVSAISGSGISTPYADSVKGRFTISRDNSKNTLYLQMNSLRAEDTAVYYCAKGAGHGSYVKGWFDPWGQGTLVTVSS
VL: EIVLTQSPATLSLSPGERATLSCRASQSVSSYLAWYQQKPGQAPRLLIYDASNRATGIPARFSGSGSGTDFTLTISSLEPEDFAVYYCQQSVNFPFTFGGGTKVEIK
notes: anti-BACE1 IgG
B6: 5880 (antibody, V domains shown)
VH: B5 VH with S30G, S35T
VL: B5 VL
notes: anti-BACE1 IgG
B7: 5875 (antibody, V domains shown)
VH: EVQLLESGGGLVQPGGSLRLSCAASGFTFSTYAMGWVRQAPGKGLEWVSATSGSGGSTYYADSVKGRFTISRDNSKNTLYLQMNSLRAEDTAVYYCAKGGSQWLYAPGSWFDPWGQGTLVTVSS
VL: B5 VL with Q89V, S91R, V92S, F96W
notes: anti-BACE1 IgG
B8: 5881 (antibody, V domains shown)
VH: B5 VH with S31K
VL: B5 VL
notes: anti-BACE1 IgG
B9: 5876 (antibody, V domains shown)
VH: B7 VH with T31S, Y32R, T58I
VL: B5 VL with Q89V, S91R, V92S, F96W
notes: anti-BACE1 IgG
B10: 5874 (antibody, V domains shown)
VH: B7 VH with S30G, T31S, G35S, N84D
VL: B5 VL with Q89V, S91R, V92S, F96W
notes: anti-BACE1 IgG
B11: hu7A4.v5 (antibody, V domains shown)
VH: EVQLVQSGAEVKKPGASVKVSCKASGYTFTDYAMHWVRQAPGQGLEWMGGISTYFGRTNYNQKFKGRVTMTRDTSISTAYMELSRLRSDDTAVYYCARGLSGNYVMDYWGQGTTVTVSS
VL: DIVMTQSPDSLAVSLGERATINCRASESVDSYGNSFMHWYQQKPGQPPKLLIYRASNLESGIPDRFSGSGSGTDFTLTISSLQAEDVAVYYCQQSNEGPPTFGQGTKLEIK
notes: IgG
B12: 5986 (antibody, V domains shown)
VH: B4 VH with N52Q, Y60F
VL: B4 VL with Y36F, L93V
notes: anti-BACE1 IgG

Target: T1, BACE1 in primary mouse cortical neurons (mouse, UniProt P56818 46-501)
Experiment: cell-based or functional assay

T1 sequence (P56818 46-501): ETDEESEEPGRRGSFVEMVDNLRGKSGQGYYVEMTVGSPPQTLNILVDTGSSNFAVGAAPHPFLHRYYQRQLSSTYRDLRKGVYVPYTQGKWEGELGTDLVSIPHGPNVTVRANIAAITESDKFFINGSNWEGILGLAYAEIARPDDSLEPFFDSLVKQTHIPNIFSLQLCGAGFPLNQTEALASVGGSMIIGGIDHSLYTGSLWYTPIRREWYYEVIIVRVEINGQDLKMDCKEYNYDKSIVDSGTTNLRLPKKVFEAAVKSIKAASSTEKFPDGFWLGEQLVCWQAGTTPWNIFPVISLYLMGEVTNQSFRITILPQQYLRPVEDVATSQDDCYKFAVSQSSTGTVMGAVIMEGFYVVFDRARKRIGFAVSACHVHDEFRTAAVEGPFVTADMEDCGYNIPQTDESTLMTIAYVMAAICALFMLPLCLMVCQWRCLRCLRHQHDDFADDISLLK

IC50, Abeta x-40 in mouse cortical neurons	maximal % inhibition of Abeta x-40	Binder
46.7 nM	74%	B1
42.4 nM	84%	B2
7.11 nM	84%	B3
25.6 nM	74%	B4

Target: T2, murine BACE1 ECD
T2 construct: analyte of the Octet assay (200 nM) and enzyme of the first short substrate assay
Experiment: Octet, pH 7.5;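 further: antibodies captured on anti-human capture biosensor tips, dissociation followed in PBS with BSA buffer, kinetics fitted with a one-to-one binding model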

T2 sequence (single chain, as listed by the source limits assumed): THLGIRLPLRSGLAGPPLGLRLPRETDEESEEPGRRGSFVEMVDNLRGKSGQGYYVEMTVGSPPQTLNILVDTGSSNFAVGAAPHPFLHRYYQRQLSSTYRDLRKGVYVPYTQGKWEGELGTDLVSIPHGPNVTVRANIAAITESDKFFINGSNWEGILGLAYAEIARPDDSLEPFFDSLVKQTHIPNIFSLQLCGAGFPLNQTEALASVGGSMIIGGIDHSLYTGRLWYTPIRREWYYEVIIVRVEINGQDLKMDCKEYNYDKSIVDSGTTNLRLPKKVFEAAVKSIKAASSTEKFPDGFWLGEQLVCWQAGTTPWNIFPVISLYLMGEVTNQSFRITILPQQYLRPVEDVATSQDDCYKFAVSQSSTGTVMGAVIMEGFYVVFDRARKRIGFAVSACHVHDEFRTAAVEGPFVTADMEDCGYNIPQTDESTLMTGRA

Kd	Binder
94 nM	B1
22 nM	B2
5.4 nM	B3
2.7 nM	B5
1.2 nM	B6
22 nM	B7
2.4 nM	B8
9.7 nM	B9
22 nM	B10
2.2 nM	B4

Target: T3, human BACE1 ECD
T3 construct: analyte of the Octet assay (200 nM) and enzyme of the first short substrate assay; also called human BACE1 extracellular domain
Experiment: Octet, pH 7.5;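 further: antibodies captured on anti-human capture biosensor tips, dissociation followed in PBS with BSA buffer, kinetics fitted with a one-to-one binding model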

T3 sequence (single chain, as listed by the source limits assumed): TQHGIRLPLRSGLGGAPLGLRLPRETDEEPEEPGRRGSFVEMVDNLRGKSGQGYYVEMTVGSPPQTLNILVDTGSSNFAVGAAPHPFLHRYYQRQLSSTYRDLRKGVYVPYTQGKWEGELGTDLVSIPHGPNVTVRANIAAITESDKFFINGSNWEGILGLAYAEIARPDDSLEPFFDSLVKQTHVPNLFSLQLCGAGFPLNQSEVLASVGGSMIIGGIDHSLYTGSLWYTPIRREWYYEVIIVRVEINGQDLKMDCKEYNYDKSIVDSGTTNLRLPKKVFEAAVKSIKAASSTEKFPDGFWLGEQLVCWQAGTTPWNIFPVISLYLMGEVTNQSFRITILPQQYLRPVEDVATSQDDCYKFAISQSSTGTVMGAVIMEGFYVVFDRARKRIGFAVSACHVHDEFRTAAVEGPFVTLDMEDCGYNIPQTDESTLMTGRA

Kd	Binder
94 nM	B1
15 nM	B2
5 nM	B3
2.5 nM	B5
1 nM	B6
32 nM	B7
2.6 nM	B8
9.4 nM	B9
33 nM	B10
3.3 nM	B4

Target: T4, human TfR extracellular domain with N-terminal His tag (human, UniProt P02786 89-760)
T4 construct: Biotinylated in some assays; also called huTfR; HuTfR
Experiment: SPR, IgG;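 further: His-tagged TfR captured via immobilized anti-His antibody on a CM5 chip, antibody injected in 3-fold dilution series by single cycle kinetics, 1:1 Langmuir or steady-state fit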

T4 sequence (P02786 89-760 G142S): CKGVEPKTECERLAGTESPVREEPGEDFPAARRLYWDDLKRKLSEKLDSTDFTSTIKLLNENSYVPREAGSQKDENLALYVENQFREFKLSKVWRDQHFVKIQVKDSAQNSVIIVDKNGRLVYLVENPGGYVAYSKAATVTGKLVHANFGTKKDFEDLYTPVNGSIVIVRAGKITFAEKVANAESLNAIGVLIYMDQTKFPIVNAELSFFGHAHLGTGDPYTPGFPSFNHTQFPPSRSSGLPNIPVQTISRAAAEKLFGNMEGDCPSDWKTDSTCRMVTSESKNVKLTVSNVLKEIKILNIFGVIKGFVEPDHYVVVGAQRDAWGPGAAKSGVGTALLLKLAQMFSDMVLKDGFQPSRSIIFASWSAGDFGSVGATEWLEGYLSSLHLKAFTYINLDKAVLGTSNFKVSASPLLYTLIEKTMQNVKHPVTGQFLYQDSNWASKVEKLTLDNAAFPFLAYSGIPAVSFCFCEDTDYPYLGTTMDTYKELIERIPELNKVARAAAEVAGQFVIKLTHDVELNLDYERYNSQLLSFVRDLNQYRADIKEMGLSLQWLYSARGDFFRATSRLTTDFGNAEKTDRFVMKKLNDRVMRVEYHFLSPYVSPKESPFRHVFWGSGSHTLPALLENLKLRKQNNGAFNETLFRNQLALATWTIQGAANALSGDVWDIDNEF

Kd	Binder
0.364 nM	B11

Target: BACE1 (HTRF long substrate and FRET short substrate assays of Example 9D)
Experiment: cell-based or functional assay

EC50, FRET short substrate	EC50, HTRF long substrate	Binder
36.8 nM	720 nM	B1
	0.578 nM	B2
0.417 nM	5.06 nM	B3
24.3 nM	164 nM	B5
7.88 nM	171 nM	B6
1.99 nM	4.9 nM	B7
5.93 nM	33.7 nM	B8
0.703 nM	1.67 nM	B9
0.798 nM	3.97 nM	B10

Target: T1, BACE1 in primary mouse cortical neurons
Experiment: cell-based or functional assay
Remark: another data set of the same source

IC50, Abeta x-40 in mouse cortical neurons	maximal % inhibition of Abeta x-40	Binder
5.42 nM	67%	B12

Target: T2, murine BACE1 ECD
Experiment: Octet, pH 7.5;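 further: antibodies captured on anti-human capture biosensor tips, dissociation followed in PBS with BSA buffer, kinetics fitted with a one-to-one binding model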
Remark: another data set of the same source

Kd	Binder
0.54 nM	B12

Target: T3, human BACE1 ECD
Experiment: Octet, pH 7.5;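 further: antibodies captured on anti-human capture biosensor tips, dissociation followed in PBS with BSA buffer, kinetics fitted with a one-to-one binding model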
Remark: another data set of the same source

Kd	Binder
0.78 nM	B12

Target: T2, murine BACE1 ECD
Experiment: cell-based or functional assay

% inhibition of BACE1 activity, short FRET substrate	Binder
-35%	B1
30%	B2
-175%	B3
98%	B5
97%	B6
39%	B7
98%	B8
46%	B9
33%	B10

Target: T3, human BACE1 ECD
Experiment: cell-based or functional assay

% inhibition of BACE1 activity, short FRET substrate	Binder
-54%	B1
32%	B2
-89%	B3
99%	B5
99%	B6
51%	B7
97%	B8
58%	B9
37%	B10

Target: T2, murine BACE1 ECD
Experiment: Octet, pH 5.0

Kd	Binder
< 0.27 nM	B12

Target: T3, human BACE1 ECD
Experiment: Octet, pH 5.0

Kd	Binder
< 0.24 nM	B12

Target: T2, murine BACE1 ECD
Experiment: Octet, pH 5.0
Remark: another data set of the same source

Kd	Binder
180 nM	B1
6.8 nM	B2
8.4 nM	B3
14 nM	B5
6.1 nM	B6
120 nM	B7
15 nM	B8
43 nM	B9
200 nM	B10
3.1 nM	B4

Target: T3, human BACE1 ECD
Experiment: Octet, pH 5.0
Remark: another data set of the same source

Kd	Binder
120 nM	B1
17 nM	B2
8.2 nM	B3
11 nM	B5
4.5 nM	B6
50 nM	B7
11 nM	B8
31 nM	B9
3 nM	B4

Target: T5, human BACE1 (R&D Systems) (human, UniProt P56817)
T5 construct: recombinant, commercial (R&D Systems)
Experiment: SPR (Biacore)

T5 sequence (P56817 22-457 limits assumed): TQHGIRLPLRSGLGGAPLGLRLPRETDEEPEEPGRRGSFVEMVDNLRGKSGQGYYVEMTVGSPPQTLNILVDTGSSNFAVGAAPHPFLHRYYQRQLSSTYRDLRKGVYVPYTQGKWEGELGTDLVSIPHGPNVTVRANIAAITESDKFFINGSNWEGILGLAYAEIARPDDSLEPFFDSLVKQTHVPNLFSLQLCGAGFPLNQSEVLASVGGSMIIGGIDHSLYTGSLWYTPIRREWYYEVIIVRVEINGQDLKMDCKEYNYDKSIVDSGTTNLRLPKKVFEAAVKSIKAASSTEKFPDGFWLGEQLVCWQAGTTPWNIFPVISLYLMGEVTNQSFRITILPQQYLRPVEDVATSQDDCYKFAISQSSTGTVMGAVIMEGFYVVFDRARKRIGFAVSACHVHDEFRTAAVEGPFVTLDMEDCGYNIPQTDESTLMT

Kd	Binder
14.5 nM	B1
7.31 nM	B3
36 nM	B5
65.5 nM	B6
1.94 nM	B7
7.92 nM	B8
0.72 nM	B9
1.3 nM	B10
